Test results as given in patent publication US20230057602A1 (Bristol-Myers Squibb, published 2023).

Target: T1, human B cell maturation antigen (BCMA) (human, UniProt Q02223 1-184)
T1 sequence (looked up): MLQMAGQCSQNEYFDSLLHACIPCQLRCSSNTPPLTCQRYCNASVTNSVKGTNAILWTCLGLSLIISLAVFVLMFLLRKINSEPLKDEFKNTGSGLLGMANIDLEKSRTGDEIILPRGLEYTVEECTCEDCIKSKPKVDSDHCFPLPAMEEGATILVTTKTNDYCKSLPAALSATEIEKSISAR
Assay: cell-based or functional assay

B1: CC-93269 (42-TCBcv) (bispecific antibody, human IgG1, kappa, L234A L235A)
heavy 1: not shown
heavy 2: EVQLLESGGGLVQPGGSLRLSCAASGFTFSDNAMGWVRQAPGKGLEWVSAISGPGSSTYYADSVKGRFTISRDNSKNTLYLQMNSLRAEDTAVYYCAKVLGWFDYWGQGTLVTVSSASTKGPSVFPLAPSSKSTSGGTAALGCLVEDYFPEPVTVSWNSGALTSGVHTFPAVLQSSGLYSLSSVVTVPSSSLGTQTYICNVNHKPSNTKVDEKVEPKSCDKTHTCPPCPAPEAAGGPSVFLFPPKPKDTLMISRTPEVTCVVVDVSHEDPEVKFNWYVDGVEVHNAKTKPREEQYNSTYRVVSVLTVLHQDWLNGKEYKCKVSNKALGAPIEKTISKAKGQPREPQVCTLPPSRDELTKNQVSLSCAVKGFYPSDIAVEWESNGQPENNYKTTPPVLDSDGSFFLVSKLTVDKSRWQQGNVFSCSVMHEALHNHYTQKSLSLSPGK
light 1: EIVLTQSPGTLSLSPGERATLSCRASQSVSDEYLSWYQQKPGQAPRLLIHSASTRATGIPDRFSGSGSGTDFTLAISRLEPEDFAVYYCQQYGYPPDFTFGQGTKVEIKRTVAAPSVFIFPPSDRKLKSGTASVVCLLNNFYPREAKVQWKVDNALQSGNSQESVTEQDSKDSTYSLSSTLTLSKADYEKHKVYACEVTHQGLSSPVTKSFNRGEC
light 2: EVQLLESGGGLVQPGGSLRLSCAASGFTFSTYAMNWVRQAPGKGLEWVSRIRSKYNNYATYYADSVKGRFTISRDDSKNTLYLQMNSLRAEDTAVYYCVRHGNFGNSYVSWFAYWGQGTLVTVSSASVAAPSVFIFPPSDEQLKSGTASVVCLLNNFYPREAKVQWKVDNALQSGNSQESVTEQDSKDSTYSLSSTLTLSKADYEKHKVYACEVTHQGLSSPVTKSFNRGEC
IC50 (ng/ml) of redirected lysis, H929 cells co-cultured with healthy donor T cells (E:T 1:1, 72 h), DMSO control, mean of 3 donors: 3.42 ng/mL
IC50 (ng/ml) of redirected lysis, H929 cells co-cultured with healthy donor T cells (E:T 1:1, 72 h), with 1 µM dexamethasone, mean of 3 donors: 6.52 ng/mL
IC50 (ng/ml) of redirected lysis, KMS12-PE cells co-cultured with healthy donor T cells (E:T 1:1, 72 h), DMSO control, mean of 3 donors: 0.2 ng/mL
IC50 (ng/ml) of redirected lysis, KMS12-PE cells co-cultured with healthy donor T cells (E:T 1:1, 72 h), with 1 µM dexamethasone, mean of 3 donors: 3.61 ng/mL
IC50 (ng/ml) of redirected lysis, MM1S cells co-cultured with healthy donor T cells (E:T 1:1, 72 h), DMSO control, mean of 3 donors: 0.21 ng/mL
IC50 (ng/ml) of redirected lysis, MM1S cells co-cultured with healthy donor T cells (E:T 1:1, 72 h), with 1 µM dexamethasone, mean of 3 donors: 3.31 ng/mL
IC50 (ng/ml) of redirected lysis, SKMM2 cells co-cultured with healthy donor T cells (E:T 1:1, 72 h), DMSO control, mean of 3 donors: 0.09 ng/mL
IC50 (ng/ml) of redirected lysis, SKMM2 cells co-cultured with healthy donor T cells (E:T 1:1, 72 h), with 1 µM dexamethasone, mean of 3 donors: 0.34 ng/mL
